Positions count from the first letter of the chain named.

The values below come from US20210155689A1 (SHANGHAI PHARMAEXPLORER, published 2021).

The target in assay [1] is T1, human LAG-3 on cells (HEK293-hLAG-3 stable cell line) (human, UniProt P18627 23-525).
T1 sequence: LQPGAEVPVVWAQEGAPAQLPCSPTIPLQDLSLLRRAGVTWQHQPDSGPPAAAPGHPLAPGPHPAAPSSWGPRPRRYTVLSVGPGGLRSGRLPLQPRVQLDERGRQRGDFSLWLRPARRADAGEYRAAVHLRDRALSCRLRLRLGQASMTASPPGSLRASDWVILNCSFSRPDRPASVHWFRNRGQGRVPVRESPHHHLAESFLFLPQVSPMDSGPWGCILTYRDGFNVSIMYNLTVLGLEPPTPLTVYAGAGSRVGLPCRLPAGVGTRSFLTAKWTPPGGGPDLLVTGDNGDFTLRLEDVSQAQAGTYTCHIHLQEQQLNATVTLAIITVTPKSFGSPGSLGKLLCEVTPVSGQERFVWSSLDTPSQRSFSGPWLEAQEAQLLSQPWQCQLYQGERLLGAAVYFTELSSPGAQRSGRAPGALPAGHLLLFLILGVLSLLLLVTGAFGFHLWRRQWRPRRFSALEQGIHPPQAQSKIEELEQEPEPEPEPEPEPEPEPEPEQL
The assay is described as follows: FACS, HEK293-hLAG-3, antibody 200.000 nM. The text has this:
(§1) The pIRES plasmid with the monkey-derived full-length gene was transfected into the HEK293 cell line to construct a HEK293 stable cell line containing monkey LAG-3 (herein referred to as HEK293-cLAG-3 stable cell line). The HEK293-hLAG-3 stable cell line and HEK293-cLAG-3 stable cell line were expanded in a T-75 cell culture flask to a 90% confluence. The medium was aspirated, and the cells were washed with HBSS (Hanks' Balanced Salt Solution) 1-2 times, then treated with a enzyme-free cell dissociation fluid (Versene solution: Life technology) and the cells were collected. The cells were washed with HBSS buffer for 1-2 times. After counted, the cells were diluted with HBSS to 1-2×10⁶ cells per ml, added with 1% goat serum blocking solution, incubated on ice for 20-30 minutes, and then washed with HBSS for 2 times by centrifugation. The collected cells were suspended in the FACS buffer (HBSS+1% BSA) to 2×10⁶ cells/ml, added as 100 microliters per well to a 96-well FACS reaction plate, added with 100 microliters per well of the antibody sample to be tested, incubated on ice for 1-2 hours. The plate was washed twice with the FACS buffer by centrifugation, added with 100 microliters of fluorescent (Alexa 488)-labeled secondary antibodies per well, and incubated on ice for 0.5-1.0 hours. The plate was washed 2-3 times with FACS buffer by centrifugation, added with 100 μl fixative solution (4% Paraformaldehyde) per well to suspend the cells. 5-10 minutes later, it was washed 1-2 times with FACS buffer by centrifugation. The cells were suspended with 100 microliters of FACS buffer, FACS (FACSCalibur, BD) was used for detection and the results were analyzed.
On the technique in general: In flow cytometry, cells or beads pass a laser one at a time.

The target in assay [2] is T2, monkey LAG-3 (full length, on the cell surface) (monkey, UniProt P18627 24-525 (human entry)).
T2 construct: also called HEK293-cLAG-3; monkey LAG-3 protein on the cell surface
T2 chain: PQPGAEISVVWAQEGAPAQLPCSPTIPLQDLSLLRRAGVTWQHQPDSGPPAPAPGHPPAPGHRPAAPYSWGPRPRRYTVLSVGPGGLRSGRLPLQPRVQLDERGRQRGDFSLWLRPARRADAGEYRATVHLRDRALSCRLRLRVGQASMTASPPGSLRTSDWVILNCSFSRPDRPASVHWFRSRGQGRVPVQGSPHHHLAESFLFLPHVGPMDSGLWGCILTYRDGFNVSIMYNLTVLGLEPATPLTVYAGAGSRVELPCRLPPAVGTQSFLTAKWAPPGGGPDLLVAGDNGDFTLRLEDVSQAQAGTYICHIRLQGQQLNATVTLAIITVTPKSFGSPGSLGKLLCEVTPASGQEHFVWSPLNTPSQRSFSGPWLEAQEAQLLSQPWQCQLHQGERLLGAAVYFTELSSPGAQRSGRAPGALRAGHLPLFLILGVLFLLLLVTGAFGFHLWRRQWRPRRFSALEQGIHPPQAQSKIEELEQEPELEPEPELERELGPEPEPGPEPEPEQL
The assay is described as follows: FACS, HEK293-cLAG-3; 0.013 nM.
Excerpt: as §1

Assay [3] addresses T3, mouse LAG-3 protein with hFc tag (mLAG-3-hFc protein) (mouse; human, UniProt Q61790 24-442).
T3 construct: Made in HEK293 cells; also called mouse LAG-3 extracellular domain protein; not shown: human IgG Fc fragment (hFc) of the pCpC vector
T3 sequence: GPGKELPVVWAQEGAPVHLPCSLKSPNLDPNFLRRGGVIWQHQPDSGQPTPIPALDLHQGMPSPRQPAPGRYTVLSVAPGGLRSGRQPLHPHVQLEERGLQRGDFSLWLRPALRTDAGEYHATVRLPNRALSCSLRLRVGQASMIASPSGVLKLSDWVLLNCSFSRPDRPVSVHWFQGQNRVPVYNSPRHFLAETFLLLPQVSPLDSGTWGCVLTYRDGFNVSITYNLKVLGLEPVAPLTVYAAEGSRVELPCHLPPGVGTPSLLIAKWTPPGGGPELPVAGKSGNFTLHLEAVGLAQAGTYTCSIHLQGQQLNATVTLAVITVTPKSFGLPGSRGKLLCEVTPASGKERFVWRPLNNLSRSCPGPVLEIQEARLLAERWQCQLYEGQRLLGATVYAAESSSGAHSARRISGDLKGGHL
The assay is described as follows: ELISA, mLAG-3-hFc coated; 66.6670 nM. The method, then:
The plate was sealed with plastic film and incubated overnight at 4° C. The plate was washed 2 times with the plate washing solution (PBS+0.01% Tween20) on the next day, and added with the blocking solution (PBS+0.01% Tween20+1% BSA) and blocked at room temperature for 1-2 hours. The blocking solution was poured out, and the plate was added with 50-100 μl of the antibody sample to be tested to each well, incubated at 37° C. for 1-2 hours, and washed 2-3 times with a plate washing solution (PBS+0.01% Tween20). HRP (horseradish peroxidase) labeled secondary antibody was added, and the plate was incubated at 37° C. for 1-2 hours, and washed 2-3 times with a plate washing solution (PBS+0.01% Tween20). 100 μl of TMB substrate was added to each well. After incubated at room temperature for 15-30 minutes, the plate was added with 100 μl of stop solution (1.0N HCl) to each well.
In general terms: ELISA stands for enzyme-linked immunosorbent assay.

B1: 556F6B8 mouse-human chimeric antibody (antibody, V domains shown)
VH: RVQLKQSGPGLVQPSQSLSITCTVSGFSLIKYGVHWVRQSPGEGLEWLGVIWRGGITDYNAAFMSRLSITKDNSKSQVFFKMNSLQADDTAIYYCAKWDGPLAMDYWGQGTSVTVSS
VL: DIVMTQSHKFLSTSVGDRVSITCKASQDVGTTVAWYQQKPGQSPKLLIYWASTRHTGVPDRFTGSGSGTDFTLTISNVQSEDLADYFCQQYSSYPYTFGGGTKLEIK
notes: also called mAb123-556F6B8; 556F8B8
In assay [1], B1 displayed a Mean fluorescence intensity of 125.

B2: 556F6B8 (mouse antibody purified from hybridoma) (antibody, V domains shown)
VH: B1 VH
VL: B1 VL
notes: also called mAb123-556F6B8
On to B2, for which the Mean fluorescence intensity in assay [2] turned out to be 3.9 MFI.

B3: 556F6B8 (LAG-3 mouse-human chimeric antibody) (antibody, V domains shown)
VH: B1 VH
VL: B1 VL
notes: also called 556F8B8
Molecule B3 returned an OD450 in assay [3] of 1.08 OD450.

B4: 405B8H3 (mouse antibody purified from hybridoma) (antibody, V domains shown)
VH: QVQLQQSGAELVRPGASVTLSCKASGYTFTDYEMHWVKQTPVHGLEWIGATDPETGNSAYNQKFKGKAIMTADKSSSTAYMELRSLTSEDSAVYYCISTGWNDWGQGTSLTVSS
VL: DIKMTQSPSSMYASLGERVTITCKASQDINSYLSWFQQKPGKSPKTLIYRADRLLDGVPSRFSGSGSGQDYSLTISSLEYGDMGIYYCLQYDEFPYTFGGGTKLEIK
notes: also called mAb103-405B8H3; 405B81-13
Molecule B4 had a Mean fluorescence intensity in assay [2] of 4.2 MFI.

B5: 105F1E10 (LAG-3 mouse-human chimeric antibody) (antibody, V domains shown)
VH: EVQLQQSGPELVKPGASVKMSCRASGYTFTDFKMHWMKQSHGKSLEWIGYIAPNNGGTAYNQKFRGKATLTVNESSNTAYMELRSLTSEDSAVYYCVDWDDVDYWGQGTTLTVSS
VL: B4 VL with P40S, D52N, L55V, G81E, D92V, Y96L, G100A, I106L
Consider B5, for which the OD450 in assay [3] came to 0.54 OD450.

B6: 405B8H3 mouse-human chimeric antibody (antibody, V domains shown)
VH: B4 VH
VL: B4 VL
notes: also called mAb103-405B8H3
B6: the Mean fluorescence intensity in assay [1] turned out to be 169.

B7: 105F1E10 (mouse antibody purified from hybridoma) (antibody, V domains shown)
VH: B5 VH
VL: B4 VL with P40S, D52N, L55V, G81E, D92V, Y96L, G100A, I106L
notes: also called mAb009-105F1E10
Take B7: the Mean fluorescence intensity in assay [2] was 4.1 MFI.

B8: 405B8H3 (LAG-3 mouse-human chimeric antibody) (antibody, V domains shown)
VH: B4 VH
VL: B4 VL
notes: also called mouse-human chimeric antibody 405B8H3
B8: the OD450 in assay [3] is 1.1 OD450.

B9: 105F1E10 mouse-human chimeric antibody (antibody, V domains shown)
VH: B5 VH
VL: B4 VL with P40S, D52N, L55V, G81E, D92V, Y96L, G100A, I106L
notes: also called mAb009-105F1E10
In assay [1], B9 displayed a Mean fluorescence intensity of 175.

B10: 409B11E12 (LAG-3 mouse-human chimeric antibody) (antibody, V domains shown)
VH: B4 VH with P41T, G56S, N57Y, M70L, S98A
VL: B4 VL with I2L, D52N, G81E
Regarding B10, in assay [3], the OD450 turned out to be 1.1 OD450.

B11: 409D4E10 (mouse antibody purified from hybridoma) (antibody, V domains shown)
VH: B4 VH with Y27N, G56D, S58T, M70L, A72T, S98T, T99S
VL: B4 VL with D52N, G81E, D92N
notes: also called mAb112-409D4E10
In assay [2], B11 showed a Mean fluorescence intensity of 3.5 MFI.

B12: 409B11E12 mouse-human chimeric antibody (antibody, V domains shown)
VH: B4 VH with P41T, G56S, N57Y, M70L, S98A
VL: B4 VL with I2L, D52N, G81E
notes: also called mAb104-409B11E12
On to B12, for which the Mean fluorescence intensity in assay [1] was determined as 171.

B13: 409D4E10 mouse-human chimeric antibody (antibody, V domains shown)
VH: B4 VH with Y27N, G56D, S58T, M70L, A72T, S98T, T99S
VL: B4 VL with D52N, G81E, D92N
notes: also called mAb112-409D4E10
B13: in assay [1], the Mean fluorescence intensity came out at 151.

B14: 409D4E10 (LAG-3 mouse-human chimeric antibody) (antibody, V domains shown)
VH: B4 VH with Y27N, G56D, S58T, M70L, A72T, S98T, T99S
VL: B4 VL with D52N, G81E, D92N
Regarding B14, in assay [3], the OD450 was 1.06 OD450.

B15: 409B11E12 (mouse antibody purified from hybridoma) (antibody, V domains shown)
VH: B4 VH with P41T, G56S, N57Y, M70L, S98A
VL: B4 VL with I2L, D52N, G81E
notes: also called mAb104-409B11E12
In turn, B15 returned a Mean fluorescence intensity in assay [2] of 3.3 MFI.
